From PMC5922973, “Topoisomerase VI senses and exploits both DNA crossings and bends to facilitate strand passage” (eLife, 2018)
Changes are numbered by the printed parent chain.

Assays:
topo VI H2TH-EEE [1] = biological target: T1, topo VI H2TH-EEE (Methanosarcina mazei, UniProt Q8PUB7;Q8PUB8 1-369;1-621, R263E;K268E;K308E); assay: fluorescence anisotropy; Hill h 1.3; FA: 20 nM probe, 50 mM K-glutamate, 20 mM HEPES-KOH pH 7.5, 10 mM MgCl2, 5% glycerol, 1 mM TCEP, 0.1 mg/mL BSA; incubated on ice, read at ambient temperature; competition with 100 nM enzyme; details: protein: recombinant; tags: N-terminal His6-TEV on Top6B, removed; chain copies: 2;2; label: 5'-FAM strand 1; blunt
T1 sequence 1: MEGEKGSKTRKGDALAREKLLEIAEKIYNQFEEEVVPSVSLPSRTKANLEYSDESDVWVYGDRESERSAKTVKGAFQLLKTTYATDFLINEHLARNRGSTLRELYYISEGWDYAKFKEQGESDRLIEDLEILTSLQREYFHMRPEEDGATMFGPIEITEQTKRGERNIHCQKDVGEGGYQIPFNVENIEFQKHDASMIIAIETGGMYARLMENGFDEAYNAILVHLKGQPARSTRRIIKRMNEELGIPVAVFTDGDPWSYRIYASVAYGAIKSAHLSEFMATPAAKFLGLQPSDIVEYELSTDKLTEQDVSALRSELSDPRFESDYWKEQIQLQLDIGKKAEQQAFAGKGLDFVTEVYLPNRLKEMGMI
T1 sequence 2: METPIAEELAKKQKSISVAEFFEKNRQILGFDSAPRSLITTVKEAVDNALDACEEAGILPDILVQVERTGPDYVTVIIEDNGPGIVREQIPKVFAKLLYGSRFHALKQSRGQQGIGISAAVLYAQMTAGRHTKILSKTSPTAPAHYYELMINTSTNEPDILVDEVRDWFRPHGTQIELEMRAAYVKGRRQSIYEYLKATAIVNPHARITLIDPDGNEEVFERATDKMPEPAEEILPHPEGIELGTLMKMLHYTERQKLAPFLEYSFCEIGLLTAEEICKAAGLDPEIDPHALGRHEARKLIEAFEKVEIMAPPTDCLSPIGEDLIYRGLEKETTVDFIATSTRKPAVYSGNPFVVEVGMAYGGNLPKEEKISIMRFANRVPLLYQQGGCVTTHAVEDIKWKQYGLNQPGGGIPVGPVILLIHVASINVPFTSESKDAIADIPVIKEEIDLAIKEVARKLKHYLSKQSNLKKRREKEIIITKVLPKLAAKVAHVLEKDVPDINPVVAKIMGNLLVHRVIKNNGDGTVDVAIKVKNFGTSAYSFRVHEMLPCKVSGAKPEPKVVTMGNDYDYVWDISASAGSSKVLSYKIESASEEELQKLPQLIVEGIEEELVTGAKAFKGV

topo VI KGRR-EEE = biological target: T2, topo VI KGRR-EEE (Methanosarcina mazei, UniProt Q8PUB7;Q8PUB8 1-369;1-621, K186E;R188E;R189E); assay: fluorescence anisotropy; 10 mM Mg2+; ambiguous, poorly defined dFAmax; FA: 20 nM probe, 50 mM K-glutamate, 20 mM HEPES-KOH pH 7.5, 10 mM MgCl2, 5% glycerol, 1 mM TCEP, 0.1 mg/mL BSA; incubated on ice, read at ambient temperature; competition with 100 nM enzyme; details: protein: recombinant; tags: N-terminal His6-TEV on Top6B, removed; chain copies: 2;2; label: 5'-FAM on S1; four-way Holliday junction, stacked-X, two GAAA-capped arms
T2 sequence 1: T1 sequence 1
T2 sequence 2: T1 sequence 2 with K186E, R188E, R189E, E263R, E268K, E308K

topo VI H2TH-EEE [2] = biological target: T1, topo VI H2TH-EEE; assay: fluorescence anisotropy; Hill h 1.6; FA: 20 nM probe, 50 mM K-glutamate, 20 mM HEPES-KOH pH 7.5, 10 mM MgCl2, 5% glycerol, 1 mM TCEP, 0.1 mg/mL BSA; incubated on ice, read at ambient temperature; competition with 100 nM enzyme; details: protein: recombinant; tags: N-terminal His6-TEV on Top6B, removed; chain copies: 2;2; label: 5'-FAM strand 1; blunt

B1: 30 bp duplex (dsDNA)
DNA 1: CAAAAAGGAAGAGTATGAGTATTCAACATC
DNA 2: GATGTTGAATACTCATACTCTTCCTTTTTG
Topo VI H2TH-EEE [1]
  Kd: 0.094 ± 0.005 µM

B2: 16 x 20 bp stacked junction (structured_DNA)
DNA 1: CGAATACTCAGCTCAACCGAAAGGTTGAGCCTTCGCTCGAAAGAGCGAAGTACTCTTCCG
DNA 2: CGGAAGAGTATGAGTATTCG
Topo VI KGRR-EEE
  Kd: ~1.46 µM

B3: 40 bp duplex (dsDNA)
DNA 1: CTATTGAAAAAGGAAGAGTATGAGTATTCAACATTTCCGC
DNA 2: GCGGAAATGTTGAATACTCATACTCTTCCTTTTTCAATAG
Topo VI H2TH-EEE [2]
  Kd: 0.045 ± 0.002 µM
